The target of the assay is T1, insoluble fibrin (fibrin plate, fibrin clot or tissue fibrin; species not stated for the experiment) (Homo sapiens (Human), UniProt P02671 36-630; P02675 45-491; P02679 27-433, Insoluble polymer of (alpha-beta-gamma)2 fibrin monomers, disulfide-bridged and possibly cross-linked by factor XIII. The letters give one copy of each chain only.).
T1 sequence (alpha): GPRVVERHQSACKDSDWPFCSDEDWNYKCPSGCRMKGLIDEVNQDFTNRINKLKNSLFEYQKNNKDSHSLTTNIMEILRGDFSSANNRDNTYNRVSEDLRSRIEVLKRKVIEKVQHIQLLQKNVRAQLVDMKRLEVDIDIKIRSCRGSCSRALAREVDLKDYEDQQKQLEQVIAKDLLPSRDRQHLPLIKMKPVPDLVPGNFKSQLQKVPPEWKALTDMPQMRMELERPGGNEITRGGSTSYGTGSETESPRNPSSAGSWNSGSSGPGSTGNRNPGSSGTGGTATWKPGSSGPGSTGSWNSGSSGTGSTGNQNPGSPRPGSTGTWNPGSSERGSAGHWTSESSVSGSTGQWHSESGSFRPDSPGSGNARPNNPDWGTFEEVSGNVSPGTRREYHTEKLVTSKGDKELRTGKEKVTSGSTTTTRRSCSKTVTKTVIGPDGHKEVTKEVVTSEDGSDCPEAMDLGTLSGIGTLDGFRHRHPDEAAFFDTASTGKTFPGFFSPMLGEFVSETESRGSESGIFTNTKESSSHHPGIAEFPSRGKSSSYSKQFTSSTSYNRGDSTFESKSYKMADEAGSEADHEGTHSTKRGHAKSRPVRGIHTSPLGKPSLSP
T1 sequence (beta): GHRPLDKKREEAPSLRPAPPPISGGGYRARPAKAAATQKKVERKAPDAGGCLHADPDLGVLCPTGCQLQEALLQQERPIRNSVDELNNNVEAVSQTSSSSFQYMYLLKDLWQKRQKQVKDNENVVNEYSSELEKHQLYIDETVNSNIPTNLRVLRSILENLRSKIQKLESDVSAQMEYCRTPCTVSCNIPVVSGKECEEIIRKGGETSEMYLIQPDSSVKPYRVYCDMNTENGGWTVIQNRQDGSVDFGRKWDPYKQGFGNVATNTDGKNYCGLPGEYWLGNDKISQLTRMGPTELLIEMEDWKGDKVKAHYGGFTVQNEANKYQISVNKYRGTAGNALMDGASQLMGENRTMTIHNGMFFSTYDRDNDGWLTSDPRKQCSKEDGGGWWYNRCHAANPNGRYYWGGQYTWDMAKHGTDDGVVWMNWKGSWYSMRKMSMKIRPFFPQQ
T1 sequence (gamma): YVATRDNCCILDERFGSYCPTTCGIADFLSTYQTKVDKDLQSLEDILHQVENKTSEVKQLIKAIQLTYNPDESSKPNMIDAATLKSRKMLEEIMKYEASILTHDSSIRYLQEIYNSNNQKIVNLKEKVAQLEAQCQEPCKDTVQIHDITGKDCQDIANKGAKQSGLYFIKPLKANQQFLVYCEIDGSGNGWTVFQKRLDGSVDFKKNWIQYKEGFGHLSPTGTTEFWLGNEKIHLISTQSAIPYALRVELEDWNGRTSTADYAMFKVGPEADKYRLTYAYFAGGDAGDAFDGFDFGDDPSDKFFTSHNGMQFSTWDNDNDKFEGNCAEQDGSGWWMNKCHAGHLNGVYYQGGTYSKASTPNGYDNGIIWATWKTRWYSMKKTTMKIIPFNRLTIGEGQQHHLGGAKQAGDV
Kind of assay: ELISA, fibrin plate against fibrinogen plate, antibody at 10 µg/mL, absorbance at 492 nm. As to the method: Each of the antibody solutions (100 μL each) at 10 μg/mL was added to the fibrin plate and the fibrinogen plate, and allowed to stand at room temperature for 1 hour. After washing with TBS-T, Bethyl Anti-Human IgG-HRP (×1000 dilution) or Bethyl Anti-Mouse IgG-HRP (×10000 dilution) was added as a secondary antibody. Then, after washing with TBS-T, colorimetry was conducted with OPD for 10 minutes, and measurement was conducted at an absorption wavelength of 492 nm.
For orientation: An ELISA detects its analyte on a solid surface through an enzyme-linked reagent.

Here are results for one molecule from US20160011217A1 (NATIONAL CANCER CENTER, published 2016).

B1: Fib-0355 antibody (monoclonal antibody produced by hybridoma Fib-0355) (antibody, V domains shown)
VH: GPELKKPGETVKISCKASGYTFTNYGMNWVKQAPGKGLKWMGWINTNTGEPTYAEEFKGRFAFSLETSASTAYLQINNLKNEDTATYFCARLLDYWGQGTTLTVSS
VL: PSSLAVSAGEKVTMSCKSSQSVLYSSNQKNYLAWYQQKPGQSPKLLIYWASTRESGVPDRFTGSGSGTDFTLTISSVQAEDLAVYYCQQYLSSYTFGG
notes: Mouse hybridoma monoclonal antibody, detected with anti-mouse IgG-HRP; also called anti-β chain antibody
As to B1, the “ratio of the affinity for insoluble fibrin to the affinity for fibrinogen (absorbance at 492 nm)” value came to 13 times.
